The text below walks through data of publication PMC4780735.

Sequences and labels used below:
B1: BaeS sensory kinase tagged with monomeric yellow fluorescent protein (BaeS-mYFP) [E. coli] / itself (parent)
chain: MKFWRPGITGKLFLAIFATCIVLLISMHWAVRISFERGFIDYIKHGNEQRLQLLSDALGEQYAQHGNWRFLRNNDRFVFQILRSFEHDNSEDKPGPGMPPHGWRTQFWVVDQNNKVLVGPRAPIPPDGTRRPILVNGAEVGAVIASPVERLTRNTDINFDKQQRQTSWLIVALATLLAALATFLLARGLLAPVKRLVDGTHKLAAGDFTTRVTPTSEDELGKLAQDFNQLASTLEKNQQMRRDFMADISHELRTPLAVLRGELEAIQDGVRKFTPETVASLQAEVGTLTKLVDDLHQLSMSDEGALAYQKAPVDLIPLLEVAGGAFRERFASRGLKLQFSLPDSITVFGDRDRLMQLFNNLLENSLRYTDSGGSLQISAGQRDKTVRLTFADSAPGVSDDQLQKLFERFYRTEGSRNRASGGSGLGLAICLNIVEAHNGRIIAAHSPFGGVSITVELPLERDLQREV

Variants of B1 are the subject of this assay. Put plainly: fluorescence anisotropy (homo-FRET) on cells. The settings on record: with itself; ΔbaeS cells; Copper (10 μM) added at about 45 sec; plateau read at about 200-300 sec, before EDTA (100 μM); parent: 0.79; read off a plot. A general note: In fluorescence polarisation assays a small probe gives low polarisation when free and higher when bound to something large.
Consider chain 1 H45A H65A H87A H101A, for which the response came to 0.95 r/r0.
